Measurements as given in the RNAGym collection of RNA variant scans (doi:10.1093/molbev/msab373).

B1: Azoarcus group I ribozyme (parent)
chain: GUGCCUUGCGCCGGGAAACCACGCAAGGGAUGGUGUCAAAUUCGGCGAAACCUAAGCGCCCGCCCGGGCGUAUGGCAACGCCGAGCCAAGCUUCGGCGCCUGCGCCGAUGAAGGUGUAGAGACUAGACGGCACCCACCUAAGGCAAACGCUAUGGUGAAGGCAUAGUCCAGGGAGUGGCGAAAGUCACACAAACCGG

Variants of: B1
Test: reverse-splicing fitness (ratio to wild type); higher = more active; in vitro selection; Mg2+ level not given
Outline: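 An in vitro group I ribozyme library with randomized positions was T7-transcribed and gel-purified. In triplicate, 10 pmol RNA in EPPS pH 7.5 was reacted with 50 pmoles of a 30-nt RNA substrate for 1 h at 37 °C across several added MgCl2 levels (1–48 mM), then stopped with EDTA. Products were reverse transcribed from a substrate-complementary primer, PCR-amplified and sequenced (HiSeq 4000). Fitness is a variant's read proportion after selection over that before, normalised to wild type.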

| Variant | reverse-splicing fitness |
| --- | --- |
| GUGCCUUGCGCCGGGAAACCACGCAAGGGAUGGUGUCAAAUUCGGCGAAACCUAAGCGCCCGCCCGGGCGUAUGGCAACGCGGAGCCAAGCUUCGGCGCCUGCGCCGAUGUAGGUGUAGGGACUAGACGGCACCCACCUAAGGCGAACGAUAUGGUGAAGGCAUAGUCGAGGGAGAGGCGAAAGUCACACAAACCGG [C82G A111U A120G A145G C150A C169G U176A] | 0.0165 |
| GUGCCUUGCGCCGGGAAACCACGCAAGGGAUGGUGUCAAAUUCGGCGAAACCUAAGCGCCCGCCCGGGCGUAUGGCAACGCGGAGCCAAGCUUCGGCGCCUGCGCCGAUGUAGGUGUAGGGACUAGACGGCACCCACCUAAGGCGAACGAUAUGGUGAAGGCAUAGUCGAGGGAGGGGCGAAAGUCACACAAACCGG [C82G A111U A120G A145G C150A C169G U176G] | 0.0053 |
| GUGCCUUGCGCCGGGAAACCACGCAAGGGAUGGUGUCAAAUUCGGCGAAACCUAAGCGCCCGCCCGGGCGUAUGGCAACGCGGAGCCAAGCUUCGGCGCCUGCGCCGAUGUAGGUGUAGGGACUAGACGGCACCCACCUAAGGCGAACGAUAUGGUGAAGGCAUAGUCGAGGGAGCGGCGAAAGUCACACAAACCGG [C82G A111U A120G A145G C150A C169G U176C] | 0.025 |
| GUGCCUUGCGCCGGGAAACCACGCAAGGGAUGGUGUCAAAUUCGGCGAAACCUAAGCGCCCGCCCGGGCGUAUGGCAACGCGGAGCCAAGCUUCGGCGCCUGCGCCGAUGUAGGUGUAGGGACUAGACGGCACCCACCUAAGGCGAACGAUAUGGUGAAGGCAUAGUCGAGGGAGUGGCGAAAGUCACACAAACCGG [C82G A111U A120G A145G C150A C169G] | 0.00903 |
| GUGCCUUGCGCCGGGAAACCACGCAAGGGAUGGUGUCAAAUUCGGCGAAACCUAAGCGCCCGCCCGGGCGUAUGGCAACGCGGAGCCAAGCUUCGGCGCCUGCGCCGAUGUAGGUGUAGGGACUAGACGGCACCCACCUAAGGCGAACGAUAUGGUGAAGGCAUAGUCAAGGGAGUGGCGAAAGUCACACAAACCGG [C82G A111U A120G A145G C150A C169A] | 0.0109 |
| GUGCCUUGCGCCGGGAAACCACGCAAGGGAUGGUGUCAAAUUCGGCGAAACCUAAGCGCCCGCCCGGGCGUAUGGCAACGCGGAGCCAAGCUUCGGCGCCUGCGCCGAUGUAGGUGUAGGGACUAGACGGCACCCACCUAAGGCGAACGAUAUGGUGAAGGCAUAGUCAAGGGAGGGGCGAAAGUCACACAAACCGG [C82G A111U A120G A145G C150A C169A U176G] | 0.00669 |
| GUGCCUUGCGCCGGGAAACCACGCAAGGGAUGGUGUCAAAUUCGGCGAAACCUAAGCGCCCGCCCGGGCGUAUGGCAACGCGGAGCCAAGCUUCGGCGCCUGCGCCGAUGUAGGUGUAGGGACUAGACGGCACCCACCUAAGGCGAACGAUAUGGUGAAGGCAUAGUCAAGGGAGAGGCGAAAGUCACACAAACCGG [C82G A111U A120G A145G C150A C169A U176A] | 0.0195 |
| GUGCCUUGCGCCGGGAAACCACGCAAGGGAUGGUGUCAAAUUCGGCGAAACCUAAGCGCCCGCCCGGGCGUAUGGCAACGCGGAGCCAAGCUUCGGCGCCUGCGCCGAUGUAGGUGUAGGGACUAGACGGCACCCACCUAAGGCGAACGAUAUGGUGAAGGCAUAGUCAAGGGAGCGGCGAAAGUCACACAAACCGG [C82G A111U A120G A145G C150A C169A U176C] | 0.0216 |
| GUGCCUUGCGCCGGGAAACCACGCAAGGGAUGGUGUCAAAUUCGGCGAAACCUAAGCGCCCGCCCGGGCGUAUGGCAACGCGGAGCCAAGCUUCGGCGCCUGCGCCGAUGUAGGUGUAGGGACUAGACGGCACCCACCUAAGGCCAACGCUAUGGUGAAGGCAUAGUCUAGGGAGGGGCGAAAGUCACACAAACCGG [C82G A111U A120G A145C C169U U176G] | 0.00479 |
| GUGCCUUGCGCCGGGAAACCACGCAAGGGAUGGUGUCAAAUUCGGCGAAACCUAAGCGCCCGCCCGGGCGUAUGGCAACGCGGAGCCAAGCUUCGGCGCCUGCGCCGAUGUAGGUGUAGGGACUAGACGGCACCCACCUAAGGCCAACGCUAUGGUGAAGGCAUAGUCUAGGGAGCGGCGAAAGUCACACAAACCGG [C82G A111U A120G A145C C169U U176C] | 0.0168 |
| GUGCCUUGCGCCGGGAAACCACGCAAGGGAUGGUGUCAAAUUCGGCGAAACCUAAGCGCCCGCCCGGGCGUAUGGCAACGCGGAGCCAAGCUUCGGCGCCUGCGCCGAUGUAGGUGUAGGGACUAGACGGCACCCACCUAAGGCCAACGCUAUGGUGAAGGCAUAGUCCAGGGAGCGGCGAAAGUCACACAAACCGG [C82G A111U A120G A145C U176C] | 0.0136 |
| GUGCCUUGCGCCGGGAAACCACGCAAGGGAUGGUGUCAAAUUCGGCGAAACCUAAGCGCCCGCCCGGGCGUAUGGCAACGCGGAGCCAAGCUUCGGCGCCUGCGCCGAUGUAGGUGUAGGGACUAGACGGCACCCACCUAAGGCCAACGCUAUGGUGAAGGCAUAGUCCAGGGAGGGGCGAAAGUCACACAAACCGG [C82G A111U A120G A145C U176G] | 0.0065 |
| GUGCCUUGCGCCGGGAAACCACGCAAGGGAUGGUGUCAAAUUCGGCGAAACCUAAGCGCCCGCCCGGGCGUAUGGCAACGCGGAGCCAAGCUUCGGCGCCUGCGCCGAUGUAGGUGUAGGGACUAGACGGCACCCACCUAAGGCCAACGCUAUGGUGAAGGCAUAGUCCAGGGAGAGGCGAAAGUCACACAAACCGG [C82G A111U A120G A145C U176A] | 0.012 |
| GUGCCUUGCGCCGGGAAACCACGCAAGGGAUGGUGUCAAAUUCGGCGAAACCUAAGCGCCCGCCCGGGCGUAUGGCAACGCGGAGCCAAGCUUCGGCGCCUGCGCCGAUGUAGGUGUAGGGACUAGACGGCACCCACCUAAGGCGAACGAUAUGGUGAAGGCAUAGUCCAGGGAGUGGCGAAAGUCACACAAACCGG [C82G A111U A120G A145G C150A] | 0.00899 |
| GUGCCUUGCGCCGGGAAACCACGCAAGGGAUGGUGUCAAAUUCGGCGAAACCUAAGCGCCCGCCCGGGCGUAUGGCAACGCGGAGCCAAGCUUCGGCGCCUGCGCCGAUGUAGGUGUAGGGACUAGACGGCACCCACCUAAGGCGAACGCUAUGGUGAAGGCAUAGUCCAGGGAGUGGCGAAAGUCACACAAACCGG [C82G A111U A120G A145G] | 0.0151 |
